US20090155205A1

Columns and labels:
[1] = target: recombinant human TNFα (rhTNFα) (human) (UniProt P01375); test: SPR BIAcore, biotin-rhTNFα immobilized, average of the series
[2] = target: recombinant human TNFα (rhTNFα) (human) (UniProt P01375); test: cell-based or functional assay
[3] = target: recombinant human TNFα (rhTNFα) (human) (UniProt P01375); test: SPR BIAcore, biotin-rhTNFα immobilized, Ab 25 nM
[4] = target: recombinant human TNFα (rhTNFα) (human) (UniProt P01375); test: SPR BIAcore, biotin-rhTNFα immobilized, Ab 13 nM
[5] = target: recombinant human TNFα (rhTNFα) (human) (UniProt P01375); test: SPR BIAcore, biotin-rhTNFα immobilized, Ab 3 nM
[6] = target: recombinant human TNFα (rhTNFα) (human) (UniProt P01375); test: SPR BIAcore, biotin-rhTNFα immobilized, Ab 400 nM
[7] = target: recombinant human TNFα (rhTNFα) (human) (UniProt P01375); test: SPR BIAcore, biotin-rhTNFα immobilized, Ab 200 nM
[8] = target: recombinant human TNFα (rhTNFα) (human) (UniProt P01375); test: SPR BIAcore, biotin-rhTNFα immobilized, Ab 100 nM
[9] = target: recombinant human TNFα (rhTNFα) (human) (UniProt P01375); test: SPR BIAcore, summary table
[10] = target: recombinant human TNFα (rhTNFα) (human) (UniProt P01375); test: SPR BIAcore, biotin-rhTNFα immobilized, Ab 50 nM
[11] = target: recombinant human TNFα (rhTNFα) (human) (UniProt P01375); test: SPR BIAcore, biotin-rhTNFα immobilized, Ab 6 nM

recombinant human TNFα (rhTNFα) (human), sequence (P01375 77-233 limits assumed): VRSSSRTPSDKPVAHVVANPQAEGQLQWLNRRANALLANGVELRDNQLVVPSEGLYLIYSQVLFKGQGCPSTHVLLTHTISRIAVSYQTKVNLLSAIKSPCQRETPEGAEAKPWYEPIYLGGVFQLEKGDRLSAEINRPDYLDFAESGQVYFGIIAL

Q: Which koff [1] does the source give for MAK 195 F(ab′)2 here?
A: 4.94e-05 s⁻¹

Q: What about the IC50, neutralization of TNFα-induced L929 cytotoxicity [2] of the same substance?
A: 62 pM

Q: And the Ab, bound, RUs [3]?
A: 957 RUs

Q: And the koff [3]?
A: 4.41e-05 s⁻¹

Q: What about the rhTNFα/Ab [3] of the same substance?
A: 1.09

Q: What about the Ab, bound, RUs [4] of the same substance?
A: 708 RUs

Q: What about the koff [4] of the same substance?
A: 3.66e-05 s⁻¹

Q: And the rhTNFα/Ab [4]?
A: 0.78

Q: What about the Ab, bound, RUs [5] of the same substance?
A: 231 RUs

Q: What about the koff [5] of the same substance?
A: 6.95e-05 s⁻¹

Q: What about the rhTNFα/Ab [5] of the same substance?
A: 0.26

Q: What about the Ab, bound, RUs [6] of the same substance?
A: 881 RUs

Q: What about the koff [6] of the same substance?
A: 5.38e-05 s⁻¹

Q: And the rhTNFα/Ab [6]?
A: 1.2

Q: And the Ab, bound, RUs [7]?
A: 1080 RUs

Q: And the koff [7]?
A: 4.54e-05 s⁻¹

Q: What about the rhTNFα/Ab [7] of the same substance?
A: 1.38

Q: What about the Ab, bound, RUs [8] of the same substance?
A: 1140 RUs

Q: What about the koff [8] of the same substance?
A: 3.54e-05 s⁻¹

Q: And the rhTNFα/Ab [8]?
A: 1.39

Q: And the Kd [9]?
A: 460 pM

Q: What about the Stoichiometry [9] of the same substance?
A: 1.4

Q: What about the koff [9] of the same substance?
A: 8.7e-05 s⁻¹

Q: What about the kon [9] of the same substance?
A: 190000 M⁻¹ s⁻¹

Q: What about the Ab, bound, RUs [10] of the same substance?
A: 1110 RUs

Q: And the koff [10]?
A: 3.67e-05 s⁻¹

Q: What about the rhTNFα/Ab [10] of the same substance?
A: 1.32

Q: And the Ab, bound, RUs [11]?
A: 433 RUs

Q: And the koff [11]?
A: 7.37e-05 s⁻¹

Q: And the rhTNFα/Ab [11]?
A: 0.47
